Laboratory results reported in publication PMC6958441, “Role of the Metal Center in the Modulation of the Aggregation Process of Amyloid Model Systems by Square Planar Complexes Bearing 2-(2′-pyridyl)benzimidazole Ligands” (Pharmaceuticals, 2019).

Molecular target: the molecule itself
Assay: ESI-MS; peptide alone (control) at 100 µM in 15 mM ammonium acetate pH 6.8, 25 °C, direct injection, Q-ToF; the dimer is also seen in the samples with the metal complexes 1-3

B1: NPM1_(264–277), fragment corresponding to the 2nd helix (residues 264–277) of the C-terminal domain of nucleophosmin 1 (peptide)
peptide: Ac-VEAKFINYVKNCFR-NH2
notes: The dimer seen by ESI-MS is held by a disulfide bridge through the single cysteine of the peptide; A species of 1874 Da (monomer adduct on the Cys) and oxidised forms were also in the sample; source: synthetic peptide, treated with HFIP, purified through RP-HPLC
  stoichiometry N: 2
